Changes are numbered by the printed parent chain.
T1: human FcγRIIB (human, UniProt P31994 46-217)
T1 construct: also called CD32B
T1 sequence (looked up): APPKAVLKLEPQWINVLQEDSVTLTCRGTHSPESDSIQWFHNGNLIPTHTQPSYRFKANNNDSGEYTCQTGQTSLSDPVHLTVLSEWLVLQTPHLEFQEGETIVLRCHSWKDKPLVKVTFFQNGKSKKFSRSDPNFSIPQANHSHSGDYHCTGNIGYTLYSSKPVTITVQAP

T2: human FcγRIIA (human, UniProt P12318 36-218)
T2 sequence (looked up): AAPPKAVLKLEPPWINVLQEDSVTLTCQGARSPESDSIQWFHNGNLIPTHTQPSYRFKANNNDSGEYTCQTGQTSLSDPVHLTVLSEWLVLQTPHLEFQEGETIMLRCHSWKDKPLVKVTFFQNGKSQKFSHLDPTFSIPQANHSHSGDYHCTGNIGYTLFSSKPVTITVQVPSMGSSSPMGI

T3: CD23 (UniProt P06734 48-321)
T3 sequence (looked up): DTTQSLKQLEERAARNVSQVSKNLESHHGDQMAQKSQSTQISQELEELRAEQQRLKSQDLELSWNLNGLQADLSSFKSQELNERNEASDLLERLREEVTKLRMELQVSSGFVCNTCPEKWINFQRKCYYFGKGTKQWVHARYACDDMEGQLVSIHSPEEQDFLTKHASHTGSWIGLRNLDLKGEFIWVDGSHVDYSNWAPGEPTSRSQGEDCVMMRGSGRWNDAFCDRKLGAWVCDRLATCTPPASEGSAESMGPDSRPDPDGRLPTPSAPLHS

T4: tetrameric human DC-SIGN (human, UniProt Q9NNX6 66-404)
T4 sequence (looked up): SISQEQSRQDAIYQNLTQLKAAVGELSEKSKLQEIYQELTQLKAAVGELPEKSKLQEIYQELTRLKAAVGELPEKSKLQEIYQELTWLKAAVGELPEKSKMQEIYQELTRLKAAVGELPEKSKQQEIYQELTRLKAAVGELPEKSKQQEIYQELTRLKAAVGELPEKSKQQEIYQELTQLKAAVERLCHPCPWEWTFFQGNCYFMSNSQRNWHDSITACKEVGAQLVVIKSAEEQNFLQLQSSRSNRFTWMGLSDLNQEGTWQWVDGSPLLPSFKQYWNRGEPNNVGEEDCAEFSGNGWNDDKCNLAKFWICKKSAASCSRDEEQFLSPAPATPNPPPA

T5: Siglec-4 (UniProt P20916 20-516)
T5 construct: also called MAG
T5 sequence (looked up): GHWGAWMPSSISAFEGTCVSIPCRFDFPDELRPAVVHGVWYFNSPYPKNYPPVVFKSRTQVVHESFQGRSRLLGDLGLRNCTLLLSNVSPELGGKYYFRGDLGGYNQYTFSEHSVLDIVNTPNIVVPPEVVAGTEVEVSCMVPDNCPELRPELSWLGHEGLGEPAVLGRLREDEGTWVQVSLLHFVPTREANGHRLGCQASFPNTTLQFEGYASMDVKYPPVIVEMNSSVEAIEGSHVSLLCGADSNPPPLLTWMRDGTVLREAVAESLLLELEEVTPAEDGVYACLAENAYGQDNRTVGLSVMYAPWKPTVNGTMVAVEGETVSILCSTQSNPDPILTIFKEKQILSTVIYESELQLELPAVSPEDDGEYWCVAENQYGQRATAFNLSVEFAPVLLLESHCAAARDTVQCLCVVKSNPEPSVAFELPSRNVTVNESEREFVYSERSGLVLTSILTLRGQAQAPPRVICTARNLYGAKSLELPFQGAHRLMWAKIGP

T6: MMR (UniProt P22897 19-1383)
T6 sequence (looked up): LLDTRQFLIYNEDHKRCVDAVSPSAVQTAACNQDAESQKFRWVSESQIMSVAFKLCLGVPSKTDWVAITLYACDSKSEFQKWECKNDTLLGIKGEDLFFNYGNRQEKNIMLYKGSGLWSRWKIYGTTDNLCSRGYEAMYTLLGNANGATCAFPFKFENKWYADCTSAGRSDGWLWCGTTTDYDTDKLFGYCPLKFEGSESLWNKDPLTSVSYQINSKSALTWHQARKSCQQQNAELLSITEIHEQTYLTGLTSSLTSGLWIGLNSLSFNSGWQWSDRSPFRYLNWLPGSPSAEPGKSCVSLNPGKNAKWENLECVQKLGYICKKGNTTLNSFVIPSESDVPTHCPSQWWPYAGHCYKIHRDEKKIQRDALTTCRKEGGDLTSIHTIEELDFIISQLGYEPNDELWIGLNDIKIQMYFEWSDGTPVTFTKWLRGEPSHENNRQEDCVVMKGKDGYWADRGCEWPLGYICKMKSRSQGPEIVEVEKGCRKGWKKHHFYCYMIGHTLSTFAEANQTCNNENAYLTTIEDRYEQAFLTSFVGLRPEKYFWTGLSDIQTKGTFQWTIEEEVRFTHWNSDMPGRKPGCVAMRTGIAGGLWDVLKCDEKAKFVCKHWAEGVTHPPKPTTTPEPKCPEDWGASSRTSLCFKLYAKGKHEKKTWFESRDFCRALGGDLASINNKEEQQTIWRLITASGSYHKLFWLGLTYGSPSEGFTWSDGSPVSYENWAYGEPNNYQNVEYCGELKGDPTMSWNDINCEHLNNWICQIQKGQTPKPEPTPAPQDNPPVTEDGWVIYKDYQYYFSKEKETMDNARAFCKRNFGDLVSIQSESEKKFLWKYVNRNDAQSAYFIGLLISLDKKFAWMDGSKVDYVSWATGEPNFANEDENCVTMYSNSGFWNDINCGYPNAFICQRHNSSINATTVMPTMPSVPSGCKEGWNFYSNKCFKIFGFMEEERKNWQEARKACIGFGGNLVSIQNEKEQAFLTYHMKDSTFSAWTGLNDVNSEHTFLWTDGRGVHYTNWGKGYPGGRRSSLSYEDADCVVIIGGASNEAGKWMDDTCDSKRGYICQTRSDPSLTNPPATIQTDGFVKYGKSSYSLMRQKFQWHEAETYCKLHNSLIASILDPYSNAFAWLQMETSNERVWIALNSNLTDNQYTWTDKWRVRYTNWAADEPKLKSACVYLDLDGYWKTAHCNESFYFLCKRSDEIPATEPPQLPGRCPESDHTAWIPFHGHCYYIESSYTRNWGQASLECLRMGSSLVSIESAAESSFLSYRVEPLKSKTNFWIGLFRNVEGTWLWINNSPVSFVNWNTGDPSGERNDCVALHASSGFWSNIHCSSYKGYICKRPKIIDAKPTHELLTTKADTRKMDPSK

T7: dectin-2 (UniProt Q6EIG7 46-209)
T7 construct: also called dec-2
T7 sequence (looked up): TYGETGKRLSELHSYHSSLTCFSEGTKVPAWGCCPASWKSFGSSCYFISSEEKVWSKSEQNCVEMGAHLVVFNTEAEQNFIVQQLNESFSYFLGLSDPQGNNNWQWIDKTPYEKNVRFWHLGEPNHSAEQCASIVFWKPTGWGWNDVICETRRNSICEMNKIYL

T8: clec-4a (UniProt Q9UMR7 70-237)
T8 construct: also called DCIR
T8 sequence (looked up): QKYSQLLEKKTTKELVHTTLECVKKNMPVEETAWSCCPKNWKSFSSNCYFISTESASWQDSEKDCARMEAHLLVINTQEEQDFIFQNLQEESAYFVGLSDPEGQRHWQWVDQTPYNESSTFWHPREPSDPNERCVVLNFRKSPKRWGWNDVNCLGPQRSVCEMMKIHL

T9: clec-4d (UniProt Q8WXI8 39-215)
T9 sequence (looked up): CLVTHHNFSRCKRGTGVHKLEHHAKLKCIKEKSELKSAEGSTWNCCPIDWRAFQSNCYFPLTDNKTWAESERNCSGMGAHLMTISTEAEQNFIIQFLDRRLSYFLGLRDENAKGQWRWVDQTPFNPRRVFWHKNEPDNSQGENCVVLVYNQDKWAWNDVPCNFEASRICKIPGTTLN

T10: dectin-1 (UniProt Q9BXN2-2 66-201)
T10 construct: also called dec-1
T10 sequence (looked up): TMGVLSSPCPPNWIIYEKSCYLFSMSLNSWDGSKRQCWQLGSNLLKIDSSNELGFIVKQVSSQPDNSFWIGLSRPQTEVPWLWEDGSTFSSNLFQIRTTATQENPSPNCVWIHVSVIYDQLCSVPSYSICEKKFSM

B1: [change]/[change]/[change]/[change] (other)
chain: NKTHTCPPCPAPELLGGPSVFLFPPKPKDTLMISRTPEVTCVVVDVSHEDPEVKFNWYVDGVEVHNAKTKPREEQYASTYRVVSVLTVCLQDWLNGKEYKCKVSNKALPAPIEKTISKAKGQPREPQVYTLPPSREEMTKNQVSLTCLVKGFYPSDIAVEWESNGQPENNYKTTPPVLDSDGSFFLYSKLTVDKSRWQQGNVFSCSVMHEALHNHYTQKSLSLSPGKLVLGPPLYAVSLVMSDTAGTAY
B2: [change]/[change] (other)
chain: B1 chain with N1D, A236N
B3: [change]/[change]/[change] (other)
chain: B1 chain with N1D
B4: [change]/[change]/[change] (other)
chain: B1 chain with A236N
B5: [change]/[change]/[change] (other)
chain: B1 chain with A77N

The binders below were run against human FcγRIIIB (human, UniProt O75015 17-200) (assay: ELISA).
human FcγRIIIB, sequence (O75015 17-200 limits assumed): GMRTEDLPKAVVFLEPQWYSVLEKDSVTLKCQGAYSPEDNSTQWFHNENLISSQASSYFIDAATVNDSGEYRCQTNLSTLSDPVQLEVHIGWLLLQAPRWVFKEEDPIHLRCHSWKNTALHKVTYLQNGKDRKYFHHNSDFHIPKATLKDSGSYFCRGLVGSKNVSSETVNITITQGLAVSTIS

Binder	binding result
B1	no binding

Each binder was assayed against T1, human FcγRIIB (assay: ELISA).

Binder	binding result
B2	no binding
B3	binds
B1	no binding
B4	no binding
B5	no binding

What follows are binders tested against human FcγRIIIA (human, UniProt P08637 17-208) (assay: ELISA).
human FcγRIIIA, sequence (P08637 17-208 limits assumed): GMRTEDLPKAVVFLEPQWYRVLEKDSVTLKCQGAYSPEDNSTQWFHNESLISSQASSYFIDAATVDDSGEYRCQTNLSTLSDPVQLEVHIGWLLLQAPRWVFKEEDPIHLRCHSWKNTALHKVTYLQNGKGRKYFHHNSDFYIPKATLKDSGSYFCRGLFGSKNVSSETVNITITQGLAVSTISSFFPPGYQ

Binder	binding result
B2	no binding
B3	no binding
B1	no binding
B4	no binding
B5	binds

These binders were tested against T2, human FcγRIIA (assay: ELISA).

Binder	binding result
B1	no binding

The binders below were run against C1q (UniProt P02745 23-245; P02746 28-253; P02747 29-245) (assay: ELISA).
C1q, sequence (P02745 23-245, chain 1 of 3): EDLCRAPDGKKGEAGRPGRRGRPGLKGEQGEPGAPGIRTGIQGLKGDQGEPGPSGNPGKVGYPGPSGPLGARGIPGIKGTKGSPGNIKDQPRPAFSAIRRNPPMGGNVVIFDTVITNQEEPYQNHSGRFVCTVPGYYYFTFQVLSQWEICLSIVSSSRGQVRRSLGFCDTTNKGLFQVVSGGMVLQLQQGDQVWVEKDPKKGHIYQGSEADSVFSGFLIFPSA
C1q, sequence (P02746 28-253, chain 2 of 3): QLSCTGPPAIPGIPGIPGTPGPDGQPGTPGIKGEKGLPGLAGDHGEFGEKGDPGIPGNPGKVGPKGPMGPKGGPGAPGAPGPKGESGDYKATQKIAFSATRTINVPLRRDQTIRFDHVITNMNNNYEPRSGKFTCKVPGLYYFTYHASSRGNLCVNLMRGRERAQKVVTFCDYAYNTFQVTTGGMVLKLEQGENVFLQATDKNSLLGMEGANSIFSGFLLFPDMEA
C1q, sequence (P02747 29-245, chain 3 of 3): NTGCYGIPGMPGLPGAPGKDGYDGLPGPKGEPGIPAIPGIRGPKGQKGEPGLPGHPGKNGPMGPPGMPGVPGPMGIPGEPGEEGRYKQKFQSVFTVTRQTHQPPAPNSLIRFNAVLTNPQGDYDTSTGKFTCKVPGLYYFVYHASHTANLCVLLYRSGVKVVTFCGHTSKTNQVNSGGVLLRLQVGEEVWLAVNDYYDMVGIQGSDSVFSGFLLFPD

Binder	binding result
B2	no binding
B4	no binding

The binders below were run against T3, CD23 (assay: ELISA).

Binder	binding result
B3	no binding
B5	no binding

Each binder was assayed against MBL (UniProt P11226 21-248) (assay: ELISA).
MBL, sequence (P11226 21-248 limits assumed): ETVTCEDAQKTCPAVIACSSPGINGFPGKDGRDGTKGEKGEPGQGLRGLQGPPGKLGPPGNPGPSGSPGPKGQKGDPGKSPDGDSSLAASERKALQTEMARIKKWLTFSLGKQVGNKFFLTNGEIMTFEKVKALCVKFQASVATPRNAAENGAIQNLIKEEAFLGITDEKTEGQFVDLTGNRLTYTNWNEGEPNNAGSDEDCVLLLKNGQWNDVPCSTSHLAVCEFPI

Binder	binding result
B2	no binding
B1	no binding
B4	no binding
B5	no binding

The binders below were run against T4, tetrameric human DC-SIGN (assay: ELISA).

Binder	binding result
B2	no binding
B3	binds
B1	no binding
B4	no binding
B5	no binding

These binders were tested against T5, Siglec-4 (assay: ELISA).

Binder	binding result
B2	no binding
B4	no binding

Each binder was assayed against Siglec-3 (UniProt P20138 18-259) (assay: ELISA).
Siglec-3, sequence (P20138 18-259 limits assumed): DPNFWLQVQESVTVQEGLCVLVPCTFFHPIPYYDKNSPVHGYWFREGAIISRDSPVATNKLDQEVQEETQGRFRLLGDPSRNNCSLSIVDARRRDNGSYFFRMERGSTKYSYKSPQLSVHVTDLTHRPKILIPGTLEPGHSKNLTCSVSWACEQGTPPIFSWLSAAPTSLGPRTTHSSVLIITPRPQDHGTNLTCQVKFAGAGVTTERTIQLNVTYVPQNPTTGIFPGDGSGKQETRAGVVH

Binder	binding result
B2	no binding
B3	no binding
B4	no binding
B5	no binding

What follows are binders tested against T6, MMR (assay: ELISA).

Binder	binding result
B2	no binding
B1	no binding
B4	no binding
B5	no binding

These binders were tested against T7, dectin-2 (assay: ELISA).

Binder	binding result
B2	no binding
B4	no binding

Each binder was assayed against T8, clec-4a (assay: ELISA).

Binder	binding result
B2	no binding
B3	no binding
B1	no binding
B4	no binding
B5	no binding

The binders below were run against T9, clec-4d (assay: ELISA).

Binder	binding result
B2	no binding
B3	no binding
B4	no binding
B5	no binding

What follows are binders tested against T11, Siglec-2 (UniProt P20273 20-687) (assay: ELISA).
T11 construct: also called CD22

Binder	binding result
B2	no binding
B4	no binding
B5	no binding

What follows are binders tested against T10, dectin-1 (assay: ELISA).

Binder	binding result
B2	no binding
B1	no binding
B4	no binding
B5	no binding

— patent publication US20210024615A1 (LIVERPOOL SCHOOL OF TROPICAL MEDICINE, published 2021)
